{
  "source": "paper PMC3278721",
  "about": "(Molecular Cell, 2012)",
  "key": {"[1]": {"target": "T1, Maltose Binding Protein fused to ROS1 full-length (MBP-ROS1) (Arabidopsis, UniProt Q9SJQ6 1-1393)", "T1 sequence (looked up)": "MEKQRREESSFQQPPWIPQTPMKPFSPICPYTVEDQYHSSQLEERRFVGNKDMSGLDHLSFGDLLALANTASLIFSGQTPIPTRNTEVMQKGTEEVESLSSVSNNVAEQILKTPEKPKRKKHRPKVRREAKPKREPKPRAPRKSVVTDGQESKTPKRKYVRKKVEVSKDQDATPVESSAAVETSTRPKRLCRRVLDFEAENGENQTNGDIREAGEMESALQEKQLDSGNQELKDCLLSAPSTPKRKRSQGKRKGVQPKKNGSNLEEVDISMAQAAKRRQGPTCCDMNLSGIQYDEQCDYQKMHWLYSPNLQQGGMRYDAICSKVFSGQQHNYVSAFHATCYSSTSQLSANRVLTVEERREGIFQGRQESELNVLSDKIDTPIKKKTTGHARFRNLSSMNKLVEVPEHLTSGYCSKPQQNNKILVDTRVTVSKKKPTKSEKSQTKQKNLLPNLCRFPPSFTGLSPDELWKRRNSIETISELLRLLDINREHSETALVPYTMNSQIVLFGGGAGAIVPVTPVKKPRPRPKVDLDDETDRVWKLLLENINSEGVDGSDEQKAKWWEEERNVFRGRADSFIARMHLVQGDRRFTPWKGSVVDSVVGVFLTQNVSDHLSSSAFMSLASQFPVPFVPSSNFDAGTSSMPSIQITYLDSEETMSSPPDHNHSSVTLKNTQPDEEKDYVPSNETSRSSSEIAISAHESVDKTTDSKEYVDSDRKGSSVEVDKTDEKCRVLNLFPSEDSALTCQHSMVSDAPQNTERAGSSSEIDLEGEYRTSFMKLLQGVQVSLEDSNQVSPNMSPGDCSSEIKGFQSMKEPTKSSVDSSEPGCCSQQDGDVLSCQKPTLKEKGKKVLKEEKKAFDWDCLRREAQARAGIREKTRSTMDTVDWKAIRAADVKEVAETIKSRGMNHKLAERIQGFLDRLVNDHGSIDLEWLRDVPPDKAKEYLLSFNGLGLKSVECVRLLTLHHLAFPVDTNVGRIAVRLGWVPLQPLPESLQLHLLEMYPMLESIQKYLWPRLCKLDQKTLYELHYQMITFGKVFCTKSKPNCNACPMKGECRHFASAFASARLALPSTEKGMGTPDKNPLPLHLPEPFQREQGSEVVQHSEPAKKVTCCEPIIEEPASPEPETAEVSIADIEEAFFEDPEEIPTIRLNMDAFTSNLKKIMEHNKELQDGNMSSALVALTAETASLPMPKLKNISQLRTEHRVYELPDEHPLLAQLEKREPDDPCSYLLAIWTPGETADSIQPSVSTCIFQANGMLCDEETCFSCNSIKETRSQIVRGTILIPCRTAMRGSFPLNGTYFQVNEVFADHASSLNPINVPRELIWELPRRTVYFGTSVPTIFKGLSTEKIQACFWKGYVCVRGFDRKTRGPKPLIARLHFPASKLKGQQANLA", "assay": "pull-down"}, "[2]": {"target": "T2, Purified full-length ROS1 fused to His6-tag (FL-ROS1) (Arabidopsis, UniProt Q9SJQ6 1-1393)", "T2 sequence (looked up)": "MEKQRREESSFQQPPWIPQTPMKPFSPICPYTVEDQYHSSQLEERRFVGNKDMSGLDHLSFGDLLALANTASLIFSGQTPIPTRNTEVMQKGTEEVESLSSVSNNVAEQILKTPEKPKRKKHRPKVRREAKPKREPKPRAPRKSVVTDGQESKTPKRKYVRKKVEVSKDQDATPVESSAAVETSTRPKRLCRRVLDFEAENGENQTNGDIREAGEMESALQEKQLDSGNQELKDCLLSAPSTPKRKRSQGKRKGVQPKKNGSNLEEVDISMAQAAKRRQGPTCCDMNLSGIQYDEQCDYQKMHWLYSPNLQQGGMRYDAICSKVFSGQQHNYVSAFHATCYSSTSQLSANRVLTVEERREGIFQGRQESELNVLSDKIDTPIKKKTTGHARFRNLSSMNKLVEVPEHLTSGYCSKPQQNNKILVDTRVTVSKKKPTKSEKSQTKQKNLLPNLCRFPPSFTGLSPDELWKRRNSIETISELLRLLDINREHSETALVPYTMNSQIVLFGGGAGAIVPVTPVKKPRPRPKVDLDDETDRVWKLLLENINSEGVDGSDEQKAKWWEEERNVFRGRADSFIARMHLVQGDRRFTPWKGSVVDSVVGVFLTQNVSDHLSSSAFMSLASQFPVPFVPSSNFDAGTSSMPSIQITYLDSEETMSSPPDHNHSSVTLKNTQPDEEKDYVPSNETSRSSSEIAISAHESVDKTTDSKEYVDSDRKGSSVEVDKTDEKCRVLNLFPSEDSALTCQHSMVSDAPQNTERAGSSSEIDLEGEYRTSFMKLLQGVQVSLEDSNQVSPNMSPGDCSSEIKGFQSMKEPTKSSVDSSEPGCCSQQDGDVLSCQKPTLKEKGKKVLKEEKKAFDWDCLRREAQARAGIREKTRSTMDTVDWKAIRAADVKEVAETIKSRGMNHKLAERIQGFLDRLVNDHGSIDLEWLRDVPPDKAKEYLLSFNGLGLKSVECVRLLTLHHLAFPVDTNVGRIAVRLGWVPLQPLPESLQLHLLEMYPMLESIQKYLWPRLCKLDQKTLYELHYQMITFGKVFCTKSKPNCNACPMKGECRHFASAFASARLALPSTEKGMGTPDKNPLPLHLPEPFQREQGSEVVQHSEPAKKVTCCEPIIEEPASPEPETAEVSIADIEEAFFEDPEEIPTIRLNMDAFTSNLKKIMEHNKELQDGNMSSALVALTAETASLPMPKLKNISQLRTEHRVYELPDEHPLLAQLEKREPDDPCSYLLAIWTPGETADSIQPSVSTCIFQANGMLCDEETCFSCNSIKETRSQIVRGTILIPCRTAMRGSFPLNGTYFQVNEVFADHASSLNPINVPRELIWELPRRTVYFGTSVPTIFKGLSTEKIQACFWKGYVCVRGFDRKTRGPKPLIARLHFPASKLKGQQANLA", "assay": "pull-down"}},
  "data": [
    {"binder": "His-tagged ZDP (Arabidopsis thaliana zinc finger DNA 3'-phosphoesterase) (enzyme, UniProt Q84JE8 1-694, looked up) MITVAPFVSLRFQFPLYIINRSTLFFRERTQYLVYNTCHILRTTAKTMPVVAEYAKSNRSSCRSCSNKIAVKSLRLGLISKGRGGVDMTRWHHFDCFPTDSESIASVDDIQGLSALEKEDQDALTKLVEQCGKVPAKKPDEKKGKAKKHIMGPKGLTKAATSSKVIADNAKSSRSSCNRCSQTIVSKDLRVGLVTEDSRGFDITRWHHLGCFPIDFHPIDSVEDIGGYSSLEKGDQMELKYLAEVNKKDKTLIDDVQKMDEGDDEAIADNELTEETKKGKHSPVAKLVEQPGEPAKEDEDEESKKPASDEISEQKTKDVKNSPDSSKVISEYAKSSRSTCKKCSQTIAAKELRLGLVTRNFRGFDMKQWHHLGCFPVDSDPIVSVEDIGGFSELQSGDQDALKELVQQCGKQTLVDKMDEDNDDTEAKIKLTEETNKRKHSEVGEMVEEDESLTKAKQQMAKTHKVNMSESTSQVEVEAEITLSASDVKDKYRDANLLPKWKAFETVIFLERDDGLNDSEKIAAFDFDGCLAKTSVKIVGADAWSLMYPSIPEKLQSLHDQGYKLVIFTNESNIDRWKNKRQAAVDSKIGRLNSFIERVKVPIQVFIACGVSSSGGKGGKDDLYRKPKAGMWQLMKKHFNSGIAIDMDKSFYVGDAAGRKMDHSDADIKFAQASGLKFFTPEEYFIPSSTSPGT", "values": [
      {"measurement": "binding result", "setting": "[1]", "result": "binds"}
    ]},
    {"binder": "MBP-ZDP (enzyme, Arabidopsis thaliana, UniProt Q84JE8 1-694, looked up) MITVAPFVSLRFQFPLYIINRSTLFFRERTQYLVYNTCHILRTTAKTMPVVAEYAKSNRSSCRSCSNKIAVKSLRLGLISKGRGGVDMTRWHHFDCFPTDSESIASVDDIQGLSALEKEDQDALTKLVEQCGKVPAKKPDEKKGKAKKHIMGPKGLTKAATSSKVIADNAKSSRSSCNRCSQTIVSKDLRVGLVTEDSRGFDITRWHHLGCFPIDFHPIDSVEDIGGYSSLEKGDQMELKYLAEVNKKDKTLIDDVQKMDEGDDEAIADNELTEETKKGKHSPVAKLVEQPGEPAKEDEDEESKKPASDEISEQKTKDVKNSPDSSKVISEYAKSSRSTCKKCSQTIAAKELRLGLVTRNFRGFDMKQWHHLGCFPVDSDPIVSVEDIGGFSELQSGDQDALKELVQQCGKQTLVDKMDEDNDDTEAKIKLTEETNKRKHSEVGEMVEEDESLTKAKQQMAKTHKVNMSESTSQVEVEAEITLSASDVKDKYRDANLLPKWKAFETVIFLERDDGLNDSEKIAAFDFDGCLAKTSVKIVGADAWSLMYPSIPEKLQSLHDQGYKLVIFTNESNIDRWKNKRQAAVDSKIGRLNSFIERVKVPIQVFIACGVSSSGGKGGKDDLYRKPKAGMWQLMKKHFNSGIAIDMDKSFYVGDAAGRKMDHSDADIKFAQASGLKFFTPEEYFIPSSTSPGT", "values": [
      {"measurement": "binding result", "setting": "[2]", "result": "binds"}
    ]}
  ]
}
